This passage reports Km results from article PMC5537072, “Anthranilate phosphoribosyltransferase from the hyperthermophilic archaeon Thermococcus kodakarensis shows maximum activity with zinc and forms a unique dimeric structure” (FEBS Open Bio, 2017).

The subject of one series is Nc1ccccc1C(=O)O. Description: purified protein. Format: biochemical, Thermococcus kodakarensis. The note with it: 1 mM PRPP, 100 μM ZnCl2, 100 mM Tris/HCl pH 8.5, 55 °C.
Substrate in the series “purified protein”: O=P(O)(O)OC[C@H]1O[C@H](OP(=O)(O)OP(=O)(O)O)[C@H](O)[C@@H]1O
Description: purified protein. It counts as biochemical, Thermococcus kodakarensis. Conditions: 4 μM anthranilate, 100 μM ZnCl2, 100 mM Tris/HCl pH 8.5, 55 °C.

Regarding TkTrpD (Thermococcus kodakarensis KOD1), in the series with Nc1ccccc1C(=O)O, the Km worked out at 2.2 µM.

B1: TkTrpD (Thermococcus kodakarensis KOD1) (protein)
chain: MSLLAKIVDGKNLSFEEAYELFNELKGSDGVLIGAYLAALQTKGYTGEELAGLARAMRDSAVKLDLGKVADTAGTGGDGSSTINVSTASALILSAFTRVAKHGNVSITSKSGSANVLEALGLNIRVSPERAREMVESTNFTFIFAPAYHPALRPIMPVRKALGIKTVFNVIGPLANPADPAYQVVGVNSPELLEPVAEALEFLGVERALVVHGSGMDEVSPHRETLVLEVGNGVERYTLSPEDFGIEPVKPLPCSSPEESAARIKAVLGGSGRREDRDFILVNASAALYASGVAEDFREGLEMAREALGQGMLEKLEEIACLSKS
notes: homodimer
Regarding B1, the Michaelis constant (Km) in the series “purified protein” was found to be 250 µM.

The term Km denotes the substrate concentration at which the rate is half of its maximum.
